Assay results published in patent US20250152742A1, “COMPOSITIONS AND METHODS FOR NEUROLOGICAL DISEASES” (Trames Bio, Inc., priority 2022, published 2025).

Tested on: engineered chimeric receptor SEQ ID NO: 33 and its mutants (human α7-nAChR ligand binding domain / human GlyRα1 ion pore domain) in Lenti-X 293T cells
Assay: YFP fluorescence quenching anion reporter plate reader assay (percent quench, EC50)
Assay type: cell-based
Conditions: for YFP fluorescence quenching using CNL001 (percent quench): receptor named in row; for YFP fluorescence quenching using Varenicline, 3 nM var: ligand Varenicline 3 nM; for YFP fluorescence quenching using Varenicline, 30 nM var: ligand Varenicline 30 nM; for YFP fluorescence quenching using Varenicline, 300 nM var: ligand Varenicline 300 nM; for YFP fluorescence quenching using Varenicline, 500 nM var: ligand Varenicline 500 nM; for YFP fluorescence quenching using Varenicline, 1 uM var: ligand Varenicline 1 uM
Procedure, shortened: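 Lenti-X 293T cells co-expressing an anion-quenchable YFP were transiently transfected with receptor DNA, then ligand was added in NaI-substituted buffer (pH 7.2) after 30 min at 37 °C. Fluorescence was read about 2 min; percent quench = mean of last 10 s over 15 s pre-ligand baseline.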

B1: CODA377: engineered receptor: S172D in SEQ ID NO: 33 (protein)
chain: MRCSPGGVWLALAASLLHVSLQGEFQRKLYKELVKNYNPLERPVANDSQPLTVYFSLSLLQIMDVDEKNQVLTTNIWLQMSWTDHYLQWNVSEYPGVKTVRFPDGQIWKPDILLYNSADERFDATFHTNVLVNSSGHCQYLPPGIFKSSCPMDLKNFPMDVQTCKLKFGSWDYGGWSLDLQMQEADISGYIPNGEWDLVGIPGKRSERFYECCKEPYPDVTFTVTMRRRMGYYLIQMYIPSLLIVILSWISFWINMDAAPARVGLGITTVLTMTTQSSGSRASLPKVSYVKAIDIWMAVCLLFVFSALLEYAAVNFVSRQHKELLRFRRKRRHHKSPMLNLFQEDEAGEGRFNFSAYGMGPACLQAKDGISVKGANNSNTTNPPPAPSKSPEEMRKLFIQRAKKIDKISRIGFPMAFLIFNMFYWIIYKIVRREDVHNQ
modifications: synthetic sequence of chimeric LGIC
In the case of B1, the “YFP fluorescence quenching using CNL001 (percent quench)” value (1 nM CNL001, first column so headed) is reported as 67.544%, the “YFP fluorescence quenching using CNL001 (percent quench)” value (1 nM CNL001, second column so headed) is reported as 74.209% and the “YFP fluorescence quenching using TC-5619/Bradanicline (percent quench)” value (1 nM brd (TC-5619/Bradanicline)) is reported as 0.77%. The “YFP fluorescence quenching using TC-5619/Bradanicline (percent quench)” value (3 nM brd (TC-5619/Bradanicline)) was −4.59%, the “YFP fluorescence quenching using CNL001 (percent quench)” value (10 nM CNL001, first column so headed) was 74.346% and the “YFP fluorescence quenching using CNL001 (percent quench)” value (10 nM CNL001, second column so headed) was 75.816%. The “YFP fluorescence quenching using TC-5619/Bradanicline (percent quench)” value (10 nM brd (TC-5619/Bradanicline)) was 0.06%, the “YFP fluorescence quenching using TC-6683 (percent quench)” value (30 nM TC-6683) was −20.23% and the “YFP fluorescence quenching using TC-5619/Bradanicline (percent quench)” value (30 nM brd (TC-5619/Bradanicline)) was −10.48%. The “YFP fluorescence quenching using CNL001 (percent quench)” value (50 nM CNL001, first column so headed) was 77.068%, the “YFP fluorescence quenching using CNL001 (percent quench)” value (50 nM CNL001, second column so headed) was 76.99% and the “YFP fluorescence quenching using ABT-126 (percent quench)” value (50 nM abt (ABT-126)) was −1.53%. The “YFP fluorescence quenching using CNL001 (percent quench)” value (100 nM CNL001, first column so headed) was 79.352%, the “YFP fluorescence quenching using CNL001 (percent quench)” value (100 nM CNL001, second column so headed) was 77.865% and the “YFP fluorescence quenching (percent quench)” value (100 nM CNL002) was 59.35%. The “YFP fluorescence quenching using ABT-126 (percent quench)” value (100 nM abt (ABT-126)) was 18.18%, the “YFP fluorescence quenching using AZD-0328 (percent quench)” value (100 nM azd0328) was 65.04% and the “YFP fluorescence quenching using TC-5619/Bradanicline (percent quench)” value (100 nM brd (TC-5619/Bradanicline)) was 0.25%. For the same molecule, the “YFP fluorescence quenching using TC-6683 (percent quench)” value (300 nM TC-6683) was −13.94%, the “YFP fluorescence quenching using ABT-126 (percent quench)” value (300 nM abt (ABT-126)) was 59.15% and the “YFP fluorescence quenching using AZD-0328 (percent quench)” value (300 nM azd0328) was 81.73%. For the same molecule, the “YFP fluorescence quenching using TC-5619/Bradanicline (percent quench)” value (300 nM brd (TC-5619/Bradanicline)) was −10.61%, the “YFP fluorescence quenching using CNL001 (percent quench)” value (1 uM CNL001, first column so headed) was 80.272% and the “YFP fluorescence quenching using CNL001 (percent quench)” value (1 uM CNL001, second column so headed) was 79.432%. For the same molecule, the “YFP fluorescence quenching (percent quench)” value (1 uM CNL002) was 79.26%, the “YFP fluorescence quenching using ABT-126 (percent quench)” value (1 uM abt (ABT-126)) was 72.28% and the “YFP fluorescence quenching using TC-5619/Bradanicline (percent quench)” value (1 uM brd (TC-5619/Bradanicline)) was 3.82%. The “YFP fluorescence quenching using TC-6683 (percent quench)” value (3 uM TC-6683) was −14.17%, the “YFP fluorescence quenching (percent quench)” value (10 uM ach (acetylcholine)) was −3.19% and the “YFP fluorescence quenching (percent quench)” value (30 uM CNL002) was 79.96%. For the same molecule, the “YFP fluorescence quenching using TC-6683 (percent quench)” value (30 uM TC-6683) was 1.86%, the “YFP fluorescence quenching using AZD-0328 (percent quench)” value (30 uM azd0328) was 82.3% and the “YFP fluorescence quenching using TC-6683 (percent quench)” value (100 uM TC-6683) was 43.61%. For the same molecule, the “YFP fluorescence quenching (percent quench)” value (100 uM ach (acetylcholine)) was 0.07%, the “YFP fluorescence quenching (percent quench)” value (1 mM ach (acetylcholine)) was 71.7% and the “YFP fluorescence quenching (percent quench)” value (3 mM ach (acetylcholine)) was 76.95%. The “YFP fluorescence quenching using Facinicline, 30 nM fac” value (ligand Facinicline 30 nM) was 4.93, the “YFP fluorescence quenching using Facinicline, 300 nM fac” value (ligand Facinicline 300 nM) was 84.13 and the “YFP fluorescence quenching using Facinicline, 10 uM fac” value (ligand Facinicline 10 uM) was 66.96. For the same molecule, the “YFP fluorescence quenching using Facinicline, 30 uM fac” value (ligand Facinicline 30 uM) was 85.29, the “YFP fluorescence quenching using TC-6987, 1 uM tc6987” value (ligand TC-6987 1 uM) was −9.74 and the “YFP fluorescence quenching using TC-6987, 3 uM tc6987” value (ligand TC-6987 3 uM) was −14.04. For the same molecule, the “YFP fluorescence quenching using TC-6987, 5 uM tc6987” value (ligand TC-6987 5 uM) was −0.95, the “YFP fluorescence quenching using TC-6987, 10 uM tc6987” value (ligand TC-6987 10 uM) was −7.41 and the “YFP fluorescence quenching using TC-6987, 30 uM tc6987” value (ligand TC-6987 30 uM) was −16.12. The “YFP fluorescence quenching using TC-6987, 50 uM tc6987” value (ligand TC-6987 50 uM) was −12.79, the “YFP fluorescence quenching using TC-6987, 100 uM tc6987” value (ligand TC-6987 100 uM) was −11.77 and the “YFP fluorescence quenching using TC-6987, 300 uM tc6987” value (ligand TC-6987 300 uM) was −19.68. For the same molecule, the “YFP fluorescence quenching using TC-6987, 500 uM tc6987” value (ligand TC-6987 500 uM) was −17.02, the “YFP fluorescence quenching using Varenicline, 3 nM var” value (first column) was −3.433 and the “YFP fluorescence quenching using Varenicline, 3 nM var” value (second column) was −5.737. The “YFP fluorescence quenching using Varenicline, 30 nM var” value (first column) was −5.319, the “YFP fluorescence quenching using Varenicline, 30 nM var” value (second column) was −6.175 and the “YFP fluorescence quenching using Varenicline, 300 nM var” value (first column) was −4.135. For the same molecule, the “YFP fluorescence quenching using Varenicline, 300 nM var” value (second column) was −8.614, the “YFP fluorescence quenching using Varenicline, 500 nM var” value (first column) was −6.062 and the “YFP fluorescence quenching using Varenicline, 500 nM var” value (second column) was −6.125. For the same molecule, the “YFP fluorescence quenching using Varenicline, 1 uM var” value (first column) was −14.134 and the “YFP fluorescence quenching using Varenicline, 1 uM var” value (second column) was −15.373.
